{
  "source": "paper PMC2289705",
  "molecular_target": "vimentin 2.tag (epitope-tagged Xenopus laevis vimentin 2, 57 kD) (X. laevis)",
  "assay": "fractionation of oocytes into soluble and insoluble fractions",
  "data": [
    {"substance": "vimentin 2.tag (epitope-tagged Xenopus laevis vimentin 2, 57 kD) (natural protein)", "values": [
      {"measurement": "stoichiometry N", "value": 4}
    ]}
  ]
}
